Tests used:
AP-TALL-1 = target: T1, AP-TALL-1 (human, UniProt Q9Y275 136-285); assay: AP-TALL-1 binding to transfected cells
T1 construct: Used as conditioned medium of transfected 293 cells; AP is at the N-terminus of TALL-1; Flag precedes AP (as described for AP-APRIL); not shown: human placental alkaline phosphatase (AP), amplified from pAPtag-5

[1] = target: T2, human BR3 expressed on transfected COS 7 cells (human, UniProt Q96RJ3 1-184); assay: figure legend: AP-ligand conditioned medium on transfected COS 7 cells, in situ AP staining
T2 construct: also called hBR3
T2 sequence: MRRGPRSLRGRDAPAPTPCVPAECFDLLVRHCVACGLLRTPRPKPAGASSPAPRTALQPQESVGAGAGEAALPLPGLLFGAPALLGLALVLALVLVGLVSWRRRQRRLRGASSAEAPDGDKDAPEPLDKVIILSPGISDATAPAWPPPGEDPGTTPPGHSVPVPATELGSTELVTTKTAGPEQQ
Experimental: (a) COS 7 transfected with hBR3 (1,2) or TACI (3,4) were incubated with conditioned medium containing AP-TALL-1 (1,3) or AP-April (2,4). Cells were washed, fixed, and stained for the AP activity in situ. (b) COS7 cells transfected with TALL-1 (1,2) or April (3,4) were incubated with hBR3-hFc (1,3) or TACI-hFc (2,4). Cells were washed, fixed, and bound receptor-hFc protein was detected using a biotinylated goat anti-human antibody followed by Cy3-streptavidin. (c) BR3-hFc (1,2) or TACI-hFc (3,4) was incubated with Flag-TALL-1 (1,3) or Flag-April (2,4). The receptor-Fc fusion proteins precipitated with protein-A-agarose were subjected to immunoblotting with anti-Flag antibody. Equivalent amounts of ligand (middle panel) or receptor-hFc (bottom) were used in the binding experiment. (d) 293E cells (Invitrogen) were transfected with 0.25 ug of a NF-kB luciferase reporter gene construct, 25 ng pRL-TK, and indicated amounts of expression constructs encoding hBR3, mBR3, TACI and BCMA. NF-kB activation was determined 20-24 hours later using the Dual-Luciferase reporter assay kit (Promega).

[2] = target: T3, TACIs expressed on transfected COS 7 cells (human, UniProt O14836 1-292); assay: AP-APRIL staining of transfected cells, in situ AP activity
T3 sequence: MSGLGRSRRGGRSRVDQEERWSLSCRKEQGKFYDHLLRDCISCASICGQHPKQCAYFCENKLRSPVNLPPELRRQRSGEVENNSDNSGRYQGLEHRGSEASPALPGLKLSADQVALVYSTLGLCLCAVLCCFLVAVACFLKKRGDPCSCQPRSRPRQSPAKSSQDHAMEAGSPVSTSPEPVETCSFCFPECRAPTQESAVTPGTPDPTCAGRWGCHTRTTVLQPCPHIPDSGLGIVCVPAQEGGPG

[3] = target: T4, human TACI (265 amino acid form) expressed on transfected COS 7 cells (human, UniProt O14836 1-258); assay: AP-ligand conditioned medium on transfected COS 7 cells, in situ AP staining
T4 construct: also called hTACI (265)
T4 sequence: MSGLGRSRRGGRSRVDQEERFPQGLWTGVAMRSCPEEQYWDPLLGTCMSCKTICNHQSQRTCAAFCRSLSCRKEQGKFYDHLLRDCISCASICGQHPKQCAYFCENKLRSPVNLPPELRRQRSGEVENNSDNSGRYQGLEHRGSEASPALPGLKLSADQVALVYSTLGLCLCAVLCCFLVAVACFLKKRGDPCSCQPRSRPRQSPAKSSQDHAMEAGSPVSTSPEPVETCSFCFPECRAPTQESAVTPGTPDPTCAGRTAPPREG

[4] = target: T5, murine BR3 expressed on transfected COS 7 cells (murine, UniProt Q9D8D0 1-175); assay: as above
T5 construct: also called mBR3
T5 sequence: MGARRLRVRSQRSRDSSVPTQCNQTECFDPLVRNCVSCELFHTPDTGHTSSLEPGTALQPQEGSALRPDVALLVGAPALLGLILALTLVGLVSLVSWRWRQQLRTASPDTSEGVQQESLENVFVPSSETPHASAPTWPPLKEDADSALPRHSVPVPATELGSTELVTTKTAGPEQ

[5] = target: T6, APRIL (full length cDNA clone without Flag tag) expressed on transfected COS 7 cells (human, UniProt O75888 105-250); assay: receptor-Fc staining of transfected COS 7 cells, biotinylated anti-human antibody and Cy3-streptavidin
T6 construct: also called APRIL-transfected COS 7 cells
T6 sequence: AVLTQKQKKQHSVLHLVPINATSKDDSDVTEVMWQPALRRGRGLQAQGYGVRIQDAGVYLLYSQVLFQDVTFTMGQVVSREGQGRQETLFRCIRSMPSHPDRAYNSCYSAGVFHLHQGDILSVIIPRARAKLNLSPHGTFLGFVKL
Experimental: Transfected COS 7 cells were subsequently incubated with TACI.ECD.hFC immunoadhesin, hBr3-hFc, or mBR3-hFc (prepared as described above). Cells were incubated with the TACI ECD-IgG (or a TNFR1-IgG construct prepared as described in Ashkenazi et al., Proc. Natl. Acad. Sci., 88:10535-10539 (1991)) at 1 μg/ml for 1 hour in PBS. Cells were subsequently washed three times with PBS and fixed with 4% paraformaldehyde in PBS. Cell staining was visualized by incubation with biotinylated goat anti-human antibody (Jackson Labs, at 1:200 dilution) followed by Cy3-streptavidin (Jackson Labs, at 1:200 dilution). Murine BR3-Fc, like hBR3-hFc, also only bound TALL-1-transfected but not APRIL-transfected COS 7 cells (data not shown). […] In contrast, TACI-hFc fusion protein bound cells transfected with either TALL-1 or APRIL (FIG. 10).

T1 sequence (Q9Y275 136-285): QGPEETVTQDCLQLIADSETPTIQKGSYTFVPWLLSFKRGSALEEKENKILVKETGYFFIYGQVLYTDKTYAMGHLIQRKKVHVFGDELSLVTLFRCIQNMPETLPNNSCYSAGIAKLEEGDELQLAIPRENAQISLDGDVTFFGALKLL

B1: BCMA expressed on transfected cells (receptor)
chain: MLQMAGQCSQNEYFDSLLHACIPCQLRCSSNTPPLTCQRYCNASVTNSVKGTNAILWTCLGLSLIISLAVFVLMFLLRKISSEPLKDEFKNTGSGLLGMANIDLEKSRTGDEIILPRGLEYTVEECTCEDCIKSKPKVDSDHCFPLPAMEEGATILVTTKTNDYCKSLPAALSATEIEKSISAR
notes: The expression construct is only called 'BCMA'; also called BCMA-transfected cells
binding result (AP-TALL-1): binds

B2: AP-APRIL (ligand)
chain: T6 sequence
notes: APRIL fused C-terminally to AP, AP fused C-terminally to Flag; not shown: human placental alkaline phosphatase (AP)
binding result [1]: no binding | binding result [2]: binds | binding result [3]: binds | binding result [4]: no binding

B3: Murine BR3-Fc (Fc fusion)
chain: MGARRLRVRSQRSRDSSVPTQCNQTECFDPLVRNCVSCELFHTPDTGHTSSLEPGTALQPQEGSALRPDVA
notes: Only 'prepared as described above' is said; also called mBR3-hFc; not shown: human IgG1 Fc region
binding result [5]: no binding

Source: patent US20050070689A1 (Genentech, published 2005)
